Results published in the supplement of paper PMC9170038.

System: MS2 coat protein
Assay: apparent KD of MS2 coat protein; designed switch direction (-1 OFF switch, 1 ON switch): -1; higher = weaker reporter binding
In short: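 For each design, the apparent KD is the median over clusters of curves fitted to normalised cluster fluorescence. Clusters held RNA switches with common flanks, transcribed on Illumina chips by stalled E. coli RNA polymerase. These were titrated with SNAP-549-labelled MS2 coat protein, doubling from 0.7 or 1.5 nM to 3 µM, without input, with 200 uM small-molecule ligand, or with an oligonucleotide input.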

[1] = input ligand: microRNA oligo, concentration not stated
[2] = Eterna round: R95, input ligand: FMN 200 uM
[3] = Eterna round: R95, input ligand: microRNA oligo, concentration not stated
[4] = Eterna round: R95, input ligand: none

Row | Sequence | apparent KD of MS2 coat protein (input ligand: FMN 200 uM) [nM] | apparent KD of MS2 coat protein [1] [nM] | apparent KD of MS2 coat protein (input ligand: none) [nM] | apparent KD of MS2 coat protein [2] [nM] | apparent KD of MS2 coat protein [3] [nM] | apparent KD of MS2 coat protein [4] [nM]
1 | GCCGGCUAUGUAGGAUAUGGGCCUGAUACGGGUCUAGAAGGACAUGAGGAUCACCCAUGUAUCGUGCGCUGGUGGCUUGCCGGU [-30, -30 kcal and 19% A] (Eterna round: R96, puzzle: Exclusion NG 1) | 389 | 119 | 141 | – | – | –
2 | GAUUAUGCGAGCUUUAGGGACAUGAGGAUCACCCAUGUUCGUCUUAUUGGUCUAAAUGCACUGACAUACCUAAAUCU [JMF 74] (puzzle: Sensor v3, turn-off variant 1) | – | – | – | 14.9 | 19.8 | 16.7
3 | UGUCAGAUGGUAGGAUAUCUAUAUCGAGUGACCCUUUCAUAACAUGAGGAUCACCCAUGUCGGUGGGAGAAGGGCCGUAUGGUG [salish99_ExNG02_R04_029] (Eterna round: R96, puzzle: Exclusion NG 2) | 28.6 | 23.2 | 28.5 | – | – | –
4 | GUCUUGUCAGGAUAUCUUACAUAACCAUCGUAGUUACAAUUGGAGAAGGGACAUGAGGAUCACCCAUGUUUGCG [tap-tap-tappy32] (Eterna round: R97, puzzle: Exclusion 4) | 34.8 | – | 26.6 | – | – | –
5 | GAUACCUAUGUAAGGAUAUAUAAAGAGAGCCGCCUGUAGAAGGUACAUGAGGAUCACCCAUGUUGGGAGACCGA [Eternabot (L1) Solution 17] (Eterna round: R97, puzzle: Brourd's mod of Exclusion 4) | 1160 | – | 1390 | – | – | –
6 | GUUGUUACUGAGGAUAUUAUUUUAUUCGAUUGAUAAGAAGGCAGUACAUGAGGAUCACCCAUGUGGGUAGCUAG [Polaris20] (Eterna round: R97, puzzle: Exclusion 6) | 434 | – | 95.5 | – | – | –
7 | ACUUCACAUGAGGAUCACCCAUGUGAGGAUAUCGUCGAGGAUGUAAUGCCAUCCGUGGCGAGAAGGCGCAUGGG [Exclusion 1 (Mod1.1 solution 40 by Eternabot)] (Eterna round: R97, puzzle: Exclusion 1) | 28.5 | – | 79.8 | – | – | –
8 | AAUCCUAGAGGAUAUACAUGUGAACUACUGUACAUCCCUGUACAUGAGGAUCACCCAUGUAGAAGGCUGACGGA [Eternabot (L2) Solution 97] (Eterna round: R97, puzzle: Exclusion 2) | 244 | – | 197 | – | – | –
9 | AAUAUACAUGUAGGAUAUCUGCACGUGUAGUGCAGAGAAGGACAUGAGGAUCACCCAUGUAAUUAAGAUCAAUUAUUAAAUAUU [ENG1/3-B3] (Eterna round: R96, puzzle: Exclusion NG 1) | 447 | 32.2 | 62.3 | – | – | –
10 | UAUACCCGAGGAUAUACAUGAGGAUCACCCAUGUAGUGAAAGCUCUAAGAGCGCUCAGGUAGAAGGCGGAUUAA [EX3 A.9] (Eterna round: R97, puzzle: Exclusion 3) | 24.9 | – | 18.8 | – | – | –
11 | GAUCAUGCAGGAUAUACAGUUUCCAUGAAAACAUGGUCCUCACAUGAGGAUCACCCAUGUAGAAGGGCAUGAUC [Omei Ex2 A28] (Eterna round: R97, puzzle: Exclusion 2) | 151 | – | 1490 | – | – | –
12 | GUCAUGAUAGGAUAUUACGGACGGAACAUGAGGAUCACCCAUGUGUCCCAAUCCAACUGAUAAGAAGGAUCAUGGC [Eternabot (Original) Solution 34] (Eterna round: R97, puzzle: Exclusion 5) | 18.8 | – | 14.5 | – | – | –
13 | AUUCCACAUGAGGAUCACCCAUGUCAGGAUAUGCAUAGUCCUGCCACAUAGGACUAGCGCAGAAGGGAUCGGGC [Eternabot (L2) Solution 20] (Eterna round: R97, puzzle: Exclusion 1) | 53.9 | – | 19 | – | – | –
14 | AGUAGUAGUAUCCGAUCCUACAUGAGGAUCACCCAUGUGGCUAGACGUGCACGCGAUGCUCGUCAGACUACCAGAUG [salish99_TOv1_r3_038] (puzzle: Sensor v3, turn-off variant 1) | – | – | – | 404 | 269 | 506
15 | UUCCUCGUUGUGAGGAUAUCGUCCGUGUUUUGUUACGAGAAGGCACAUGAGGAUCACCCAUGUUAUUUGAUUUU [JR_BMOE4_Sub074] (puzzle: Brourd's mod of Exclusion 4) | – | – | – | 83.6 | 36.8 | 37.9
16 | UUUUAUAGAGGAUAUGCGUGAAUAUAUAUUCAUGGAAAUUUACAUGAGGAUCACCCAUGUAGAAGGUUGUGUUU [LRO-Excl2-20-mod 090 by JR] (Eterna round: R97, puzzle: Exclusion 2) | 13.3 | – | 11.9 | – | – | –
17 | UUGAUGUCAUCAGGAUAUAGUAUUUAAGACAUAUCUUCUUUCAAACAUGAGGAUCACCCAUGUCGCUAGAAGGGAUUAUUGAUU [JR_ExcNG2_Sub083] (Eterna round: R96, puzzle: Exclusion NG 2) | – | 11.4 | – | – | – | –

Row | Sequence | apparent KD of MS2 coat protein (input ligand: FMN 200 uM) [nM] | apparent KD of MS2 coat protein [1] [nM] | apparent KD of MS2 coat protein (input ligand: none) [nM] | apparent KD of MS2 coat protein [2] [nM] | apparent KD of MS2 coat protein [3] [nM] | apparent KD of MS2 coat protein [4] [nM]
18 | UUGAUUGGUGUAGGAUAUGUAUGAGGAUCACCCAUUAAUAAAUUUUAACCACGAGGAUCACCCGUGUAGAAGGACAUUGGUCAA [pwkr exNG2 2xF5 1xFMN.19] (Eterna round: R96, puzzle: Exclusion NG 2) | 33.1 | 23.5 | 38.4 | – | – | –
19 | CCAAGUCCAUAGGAUAUCGACCAGUCCUCUGGAUGAGAAGGAUGAACUUGAGGAUCACCCAAGUGGCCUAAUAC [Eddilesove] (Eterna round: R97, puzzle: Exclusion 6) | 50.1 | – | 23.9 | – | – | –
20 | CAAAUGGUUUAAGGAUAUUACAUGAGGAUCACCCAUGUUAUCGGGAUGCUUCUCUUAAAAUACGGUAAGAAGGUAGACCUAAUC [Ceveso] (Eterna round: R96, puzzle: Exclusion NG 2) | 451 | 91 | 84.9 | – | – | –
21 | CUAAAAGUGAUCACAGGAACAUGAGGAUCACCCAUGUGCCUCAAGGAUAUGCACGGCUAUCCAGGGUAGAAGGUGAGAAUGCAC [Eternabot solution 30] (Eterna round: R96, puzzle: Exclusion NG 3) | 68.3 | 104 | 100 | – | – | –
22 | GUAACAACUAGAGGAUAUCAGCACGUGUUGUGCUGAGAAGGCUAGAGUUACAUGAGGAUCACCCAUGUCUAGAGAUCAUUAAUU [ENG1/13-A4] (Eterna round: R96, puzzle: Exclusion NG 1) | 120 | 29.5 | 49.1 | – | – | –
23 | CACCUGAAGAGAGGAUAUGAUACAUGAGGAUCACCCAUGUAAUAAAUGAGAAUUUCGAAUGUAAUUCAGAAGGCUCAAUAAGGC [Ostricism 94 - Jieux - Exclusion NG 2] (Eterna round: R96, puzzle: Exclusion NG 2) | 107 | 50.8 | 52 | – | – | –
24 | UAAGUGUGAGGAUAUGGUAAAGAUAGAAUGAUGAAAGAACUCCAGAAGGCACAUGAGGAUCACCCAUGUAGAUG [Mat - Exclusion 4 - Mod of JL - D24] (puzzle: Exclusion 4) | – | – | – | 60.2 | 30.8 | 31.9
25 | UCUUAUUGCAAGGAUAUGCAAAUUAUUAUUAAAGCAGAAGGUGCAACAUGAGGAUCACCCAUGUUUCCGGGAAA [JR_E6_Sub040] (puzzle: Exclusion 6) | – | – | – | – | 25 | –
26 | AUCACGGAUGUAAGGAUAUACAAAACCAUAAGGUAGUAGAAGGUACAUGAGGAUCACCCAUGUGCAUAUGUUUA [BmEX4 C.14] (Eterna round: R97, puzzle: Brourd's mod of Exclusion 4) | 18.5 | – | 16.2 | – | – | –
27 | CGCAAUGGAGGAUAUACAUGAGGAUCACCCAUGUGGUCCUUGAGAUUCCAAAAGUCAAGUAGAAGGUCAGCGGC [Eternabot (L1) Solution 45] (Eterna round: R97, puzzle: Exclusion 3) | 1210 | – | 1600 | – | – | –
28 | GCAGCAUAGUUUACUAACUGUUACAUGAGGAUCACCCAUGUCUAGGAUAUGGUCUGGAUUACAGGCCAGAAGGAGGCAAGCUGC [Eli exng3 - 035] (Eterna round: R96, puzzle: Exclusion NG 3) | 11.8 | 16.8 | 19.8 | – | – | –
29 | AAAUCACAUGAGGAUCACCCAUGUCAGGAUAUCGACUGAACAGCUUCGGCUGUUCAGUCGAGAAGGGACAAUUA [Brourdxlusion 1 - Jieux - Exclusion 1] (Eterna round: R97, puzzle: Exclusion 1) | 133 | – | 43.2 | – | – | –
30 | CCAAGCUACUUCAUUAUCCACAUGAGGAUCACCCAUGUCUUGGCAAUUAUGACCUGCCCGUCAGGAGCUCGUCUUAU [Sensor-V1 #39] (Eterna round: R97, puzzle: Sensor, turn-off variant 1) | 113 | – | 55.2 | – | – | –
31 | CGUGACUAAGGAUAUACAUGAGGAUCACCCAUGUGAUUCAAGAUUUUCGACUGGAGAGGUAGAAGGUGGAUGCC [Eternabot (L1) Solution 99] (Eterna round: R97, puzzle: Exclusion 3) | 63.3 | – | 94.4 | – | – | –
32 | CUGGUCCGAGGAUAUAUUAUGUGAUACAUGAGGAUCACCCAUGUUAUAUGAUGGAUGUUAGUAGAAGGCGGACUAG [JL-ex5-3.21] (puzzle: Exclusion 5) | – | – | – | 102 | 57.3 | 59.9
33 | ACAUGAGGAUCACCCAUGUUUUUCGGGUACUCUUUUUACAGCAAGGAUAUGCAUGUUUUUUUUACGCAGAAGGUGCUUUACGUC [JR_ExcNG3_Sub067] (Eterna round: R96, puzzle: Exclusion NG 3) | – | 77.7 | – | – | – | –
